B1: inhibitor Smad6 (other, UniProt O43541 1-496, looked up)
chain: MFRSKRSGLVRRLWRSRVVPDREEGGSGGGGGGDEDGSLGSRAEPAPRAREGGGCGRSEVRPVAPRRPRDAVGQRGAQGAGRRRRAGGPPRPMSEPGAGAGSSLLDVAEPGGPGWLPESDCETVTCCLFSERDAAGAPRDASDPLAGAALEPAGGGRSREARSRLLLLEQELKTVTYSLLKRLKERSLDTLLEAVESRGGVPGGCVLVPRADLRLGGQPAPPQLLLGRLFRWPDLQHAVELKPLCGCHSFAAAADGPTVCCNPYHFSRLCGPESPPPPYSRLSPRDEYKPLDLSDSTLSYTETEATNSLITAPGEFSDASMSPDATKPSHWCSVAYWEHRTRVGRLYAVYDQAVSIFYDLPQGSGFCLGQLNLEQRSESVRRTRSKIGFGILLSKEPDGVWAYNRGEHPIFVNSPTLDAPGGRALVVRKVPPGYSIKVFDFERSGLQHAPEPDAADGPYDPNSVRISFAKGWGPCYSRQFITSCPCWLEILLNNPR
B2: GST-Smad1 (MH1 domain) fusion protein (other, UniProt Q15797 12-136, looked up)
chain: PAVKRLLGWKQGDEEEKWAEKAVDALVKKLKKKKGAMEELEKALSCPGQPSNCVTIPRSLDGRLQVSHRKGLPHVIYCRVWRWPDLQSHHELKPLECCEFPFGSKQKEVCINPYHYKRVESPVLP
notes: domain: MH1; also called s1-n219; amino-terminal MH1 domain of Smad1; not shown: glutathione S-transferase (GST) tag
B3: RNA helicase p68 (human p68 cDNA construct, expressed in transfected Cos7 cells) (enzyme, UniProt P17844 1-614, looked up)
chain: MSGYSSDRDRGRDRGFGAPRFGGSRAGPLSGKKFGNPGEKLVKKKWNLDELPKFEKNFYQEHPDLARRTAQEVETYRRSKEITVRGHNCPKPVLNFYEANFPANVMDVIARQNFTEPTAIQAQGWPVALSGLDMVGVAQTGSGKTLSYLLPAIVHINHQPFLERGDGPICLVLAPTRELAQQVQQVAAEYCRACRLKSTCIYGGAPKGPQIRDLERGVEICIATPGRLIDFLECGKTNLRRTTYLVLDEADRMLDMGFEPQIRKIVDQIRPDRQTLMWSATWPKEVRQLAEDFLKDYIHINIGALELSANHNILQIVDVCHDVEKDEKLIRLMEEIMSEKENKTIVFVETKRRCDELTRKMRRDGWPAMGIHGDKSQQERDWVLNEFKHGKAPILIATDVASRGLDVEDVKFVINYDYPNSSEDYIHRIGRTARSTKTGTAYTFFTPNNIKQVSDLISVLREANQAINPKLLQLVEDRGSGRSRGRGGMKDDRRDRYSAGKRGGFNTFRDRENYDRGYSSLLKRDFGAKTQNGVYSAANYTNGSFGSNFVSAGIQTSFRTGNPTGTYQNGYDSTQQYGSNVPNMHNGMNQQAYAYPATAAAPMIGYPMPTGYSQ
notes: Present in nuclear extracts or total lysates of Cos7 cells transfected with the p68 construct; also called Ddx5; DDX5

Key:
[1] = target: B3; test: in vitro pull-down, data not shown
[2] = target: B3; test: GST pull-down from nuclear extracts of p68-transfected Cos7 cells, immunoblot with anti-p68
[3] = target: T1, GST-Smad4(FL) fusion protein (UniProt P08515 1-218 = GST; Q13485 1-552); test: as above
T1 construct: also called s4
T1 sequence (P08515 1-218, tags or fused parts left off): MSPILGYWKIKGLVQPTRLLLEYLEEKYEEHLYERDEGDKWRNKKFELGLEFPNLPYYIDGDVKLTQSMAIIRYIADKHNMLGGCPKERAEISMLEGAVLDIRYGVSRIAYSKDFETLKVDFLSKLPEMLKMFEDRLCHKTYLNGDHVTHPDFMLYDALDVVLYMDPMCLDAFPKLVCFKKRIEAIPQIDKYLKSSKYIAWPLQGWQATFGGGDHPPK

B1
binding result [1]: no binding

B2
binding result [2]: no binding

B3
binding result [3]: no binding

Source: patent US20110152352A1 (TUFTS UNIVERSITY, published 2011)
